Biological target: the molecule itself
Experiment: gel filtration in the presence of DNA and Mg++ (self-association)

B1: nicking endonuclease N.BstNBI (enzyme)
chain: MAKKVNWYVSCSPRSPEKIQPELKVLANFEGSYWKGVKGYKAQEAFAKELAALPQFLGTTYKKEAAFSTRDRVAPMKTYGFVFVDEEGYLRITEAGKMLANNRRPKDVFLKQLVKWQYPSFQHKGKEYPEEEWSINPLVFVLSLLKKVGGLSKLDIAMFCLTATNNNQVDEIAEEIMQFRNEREKIKGQNKKLEFTENYFFKRFEKIYGNVGKIREGKSDSSHKSKIETKMRNARDVADATTRYFRYTGLFVARGNQLVLNPEKSDLIDEIISSSKVVKNYTRVEEFHEYYGNPSLPQFSFETKEQLLDLAHRIRDENTRLAEQLVEHFPNVKVEIQVLEDIYNSLNKKVDVETLKDVIYHAKELQLELKKKKLQADFNDPRQLEEVIDLLEVYHEKKNVIEEKIKARFIANKNTVFEWLTWNGFIILGNALEYKNNFVIDEELQPVTHAAGNQPDMEIIYEDFIVLGEVTTSKGATQFKMESEPVTRHYLNKKKELEKQGVEKELYCLFIAPEINKNTFEEFMKYNIVQNTRIIPLSLKQFNMLLMVQKKLIEKGRRLSSYDIKNLMVSLYRTTIECERKYTQIKAGLEETLNNWVVDKEVRF
notes: Tested for self-association by gel filtration under the same condition as MlyI; No dimers were observed
B1: no binding.
